# Molecular target: thrombin (UniProt P00734;P00734 328-363;364-622)
# Test: SPR
row,Binder,Kd [nM]
1,"GGTTGGTGTGGTTGG (structured_DNA, UNA-G at 1) [G1]",95.4 ± 3.9
2,"GGTTGGTGTGGTTGG (structured_DNA, UNA-G at 5) [G5]",425 ± 17.7
3,"GGTTGGTGTGGTTGG (structured_DNA, UNA-G at 15) [G15]",155 ± 7.4
4,"GGTTGGTGTGGTTGG (structured_DNA, UNA-G at 8) [G8]",913 ± 21.2
5,"GGTTGGTGTGGTTGG (structured_DNA, UNA-G at 6) [G6]",287 ± 12.3
6,"GGTTGGTGTGGTTGG (structured_DNA, UNA-G at 10) [G10]",222 ± 9.3
7,"GGTTGGTGTGGTTGG (structured_DNA, UNA-G at 2) [G2]",298 ± 5.7
8,GGTTGGTGTGGTTGG (structured_DNA) [TBA],103 ± 5.1
